We go through one substance from patent publication US20140113854.

As to Human α-thrombin, the “cleavage of the peptide by thrombin, HPLC of the intact peptide, 75 µM peptide, 23 nM thrombin, 37 °C” value is “BRI-T208 is significantly more resisitent to thrombin cleavage than BRI-T218” in the data set on BRI-T208 and “completely converted to the cleavage products within two hours under the specific experimental conditions” in the data set on BRI-T218.
